Assay results from the supplement of paper PMC11246515.
± gives the standard deviation of the averaged measurements.

Experiment: total protein half-life in vivo (active degradation + dilution); higher = more stable protein
[1] = E. coli NCM3722 delta-clpP delta-lon delta-hslV, growth: N-lim chemostat, doubling time 6 h
[2] = E. coli NCM3722 delta-clpP, growth: N-lim chemostat, doubling time 6 h
[3] = E. coli NCM3722 delta-lon, growth: N-lim chemostat, doubling time 6 h
[4] = E. coli NCM3722 delta-smpB, growth: N-lim chemostat, doubling time 6 h
[5] = wild type E. coli NCM3722, growth: C-lim chemostat, doubling time 3 h
[6] = wild type E. coli NCM3722, growth: C-lim chemostat, doubling time 6 h
[7] = wild type E. coli NCM3722, growth: C-lim chemostat, doubling time 12 h
[8] = wild type E. coli NCM3722, growth: N-lim chemostat, doubling time 6 h
[9] = wild type E. coli NCM3722, growth: P-lim chemostat, doubling time 6 h
[10] = wild type E. coli NCM3722, growth: P-lim chemostat, doubling time 12 h
[11] = E. coli NCM3722 delta-hslV, growth: N-lim chemostat, doubling time 6 h
[12] = wild type E. coli NCM3722, growth: N-lim chemostat, doubling time 12 h

Sequence	total protein half-life in vivo [1] [h]	total protein half-life in vivo [2] [h]	total protein half-life in vivo [3] [h]	total protein half-life in vivo [4] [h]	total protein half-life in vivo [5] [h]	total protein half-life in vivo [6] [h]	total protein half-life in vivo [7] [h]	total protein half-life in vivo [8] [h]	total protein half-life in vivo [9] [h]	total protein half-life in vivo [10] [h]	total protein half-life in vivo [11] [h]	total protein half-life in vivo [12] [h]
MLFTLKKVIGNMLLPLPLMLLIIGAGLALLWFSRFQKTGKIFISIGWLALLLLSLQPVADRLLRPIESTYPTWNNSQKVDYIVVLGGGYTWNPQWAPSSNLINNSLPRLNEGIRLWRENPGSKLIFTGGVAKTNTVSTAEVGARVAQSLGVPREQIITLDLPKDTEEEAAAVKQAIGDAPFLLVTSASHLPRAMIFFQQEGLNPLPAPANQLAIDSPLNPWERAIPSPVWLMHSDRVGYETLGRIWQWLKGSSGEPRQE [P0AB01]	6.15 ± 0.43	6.08 ± 0.23	5.87 ± 0.097	5.72 ± 0.58	3.28 ± 0.37	5.4 ± 0.28	10.5 ± 4.9	6.09 ± 0.25	6.876 ± 0.0024	10.6 ± 2.9		
MALQNEKNSRYLLRDWKPENPAFWENKGKHIARRNLWISVSCLLLAFCVWMLFSAVTVNLNKIGFNFTTDQLFLLTALPSVSGALLRVPYSFMVPIFGGRRWTVFSTAILIIPCVWLGIAVQNPNTPFGIFIVIALLCGFAGANFASSMGNISFFFPKAKQGSALGINGGLGNLGVSVMQLVAPLVIFVPVFAFLGVNGVPQADGSVMSLANAAWIWVPLLAIATIAAWSGMNDIASSRASIADQLPVLQRLHLWLLSLLYLATFGSFIGFSAGFAMLAKTQFPDVNILRLAFFGPFIGAIARSVGGAISDKFGGVRVTLINFIFMAIFSALLFLTLPGTGSGNFIAFYAVFMGLFLTAGLGSGSTFQMIAVIFRQITIYRVKMKGGSDEQAHKEAVTETAAALGFISAIGAVGGFFIPQAFGMSLNMTGSPVGAMKVFLIFYIVCVLLTWLVYGRRKFSQK	6.73 ± 1.1	6.58 ± 0.92	6.52 ± 0.52	6.07 ± 0.48	2.53	6.34 ± 0.088	13.7 ± 1.8	4.92 ± 0.76	7.05	12.86 ± 0.088	6.57 ± 1.3	10.8 ± 2.6
MNIELLQQLCEASAVSGDEQEVRDILINTLEPCVNEITFDGLGSFVARKGNKGPKVAVVGHMDEVGFMVTHIDESGFLRFTTIGGWWNQSMLNHRVTIRTHKGVKIPGVIGSVAPHALTEKQKQQPLSFDEMFIDIGANSREEVEKRGVEIGNFISPEANFACWGEDKVVGKALDNRIGCAMMAELLQTVNNPEITLYGVGSVEEEVGLRGAQTSAEHIKPDVVIVLDTAVAGDVPGIDNIKYPLKLGQGPGLMLFDKRYFPNQKLVAALKSCAAHNDLPLQFSTMKTGATDGGRYNVMGGGRPVVALCLPTRYLHANSGMISKADYEALLTLIRGFLTTLTAEKVNAFSQFRQVD			3.4	3.85 ± 0.0073	2.53			3.72	4.06	9.711 ± 0.074		
MFKSTLAAMAAVFALSALSPAAMAAKGDPHVLLTTSAGNIELELDKQKAPVSVQNFVDYVNSGFYNNTTFHRVIPGFMIQGGGFTEQMQQKKPNPPIKNEADNGLRNTRGTIAMARTADKDSATSQFFINVADNAFLDHGQRDFGYAVFGKVVKGMDVADKISQVPTHDVGPYQNVPSKPVVILSAKVLP [P0AFL3]	5.17 ± 0.94		6.04 ± 0.29	5.59 ± 0.8	3.1 ± 0.19	4.98 ± 0.6	8.28 ± 1.4	5.46 ± 0.15	5.31 ± 0.43	11.5 ± 0.59		10.36 ± 0.074
MEMTNAQRLILSNQYKMMTMLDPANAERYRRLQTIIERGYGLQMRELDREFGELKEETCRTIIDIMEMYHALHVSWSNLQDQQSIDERRVTFLGFDAATEARYLGYVRFMVNVEGRYTHFDAGTHGFNAQTPMWEKYQRMLNVWHACPRQYHLSANEINQIINA [P0A8W8]	6.72 ± 0.27	6.41 ± 0.99	6.11 ± 0.3	5.32 ± 0.45	3.28 ± 0.18	6.14 ± 0.35	12.1 ± 0.18	5.83 ± 0.58	6.41 ± 0.61	> 16	6.154 ± 0.032	12.9 ± 2.1
MMTKTQINKLIKMMNDLDYPFEAPLKESFIESIIQIEFNSNSTNCLEKLCNEVSILFKNQPDYLTFLRAMDGFEVNGLRLFSLSIPEPSVKNLFAVNEFYRNNDDFINPDLQERLVIGDYSISIFTYDIKGDAANLLI	4.14											
MIETLLEVRNLSKTFRYRTGWFRRQTVEAVKPLSFTLREGQTLAIIGENGSGKSTLAKMLAGMIEPTSGELLIDDHPLHFGDYSFRSQRIRMIFQDPSTSLNPRQRISQILDFPLRLNTDLEPEQRRKQIIETMRMVGLLPDHVSYYPHMLAPGQKQRLGLARALILRPKVIIADEALASLDMSMRSQLINLMLELQEKQGISYIYVTQHIGMMKHISDQVLVMHQGEVVERGSTADVLASPLHELTKRLIAGHFGEALTADAWRKDR [P0AAH8]	5.82 ± 0.14	5.86 ± 0.16	5.26 ± 1.3	5.78 ± 0.3	2.97 ± 0.16	5.78 ± 0.22	11.5 ± 2.9	5.53 ± 0.077	6.03 ± 0.55	12.51 ± 0.086	5.99 ± 0.16	12.1 ± 1.1
